Experimental data: the DeepSol protein solubility set

Assay: soluble on expression in E. coli; label from the status in PepcDB or PDB records

Sequence	soluble on expression in E. coli
MQSTFRRSTLAALRGFALPSDAISIVPSAADYRRCLLEKIASATRRIYIIALYLQQDEAGQEILDALYAAKAARPELDVVVLVDWFRAQRGLIGAGRQPGNSTWYQAQNLEYDEEVPIYGVPVQTRELFGVLHLKGSVIDDCVIYSGASINNVYLHKLDKYRLDRYHLIESAPLADSFEHLVQREILPSAAVHRLDLQSPPSSRSLRSEIRAFRSDLKRATYDTSAGDKENGQLRVIPLLGVGPRNSLNRAICDLIASSKIQLTICTPYFNLPVAVTREVNRALKRGVKVDIIIGDKTANDFFIDPDEPFKVISALPYLYEISLRRFAHKHQKAIAQQRLNVHLWKHGDNTFHLKGIWVDQRYTLLTGNNLNPRAFNLDLENGLLIDDPQGQWTDPREAEIAQLMRNTQRVNQYDELDTLANYPEGVRKFLKRVSRVRVERLLYRILLEHHHHHH	not soluble
MSLSWRLQTGSEKAELQELNARLYDYVCRVRELERENLLLEEELRSRLSREDRWAEDQALYAEEARSLRQQLDELNWSTALAEGERDALRRELLELQREGVEAGTARSRLDAELGAQRRELEEALGARAALEALLGRLETERRDLDAAHERQVRDLRARAASLTMHFRARATSPAAPPPRLRDVHDSYALLVAESWRESVQLYEDEVRELEQALRRGQESRLQAEDEARLCAQEADALRNQALELEQLRARLEDELLRMREEYGMQAEERQRVIDSLEDEKEALTLAMADRLRDYQELLQVKTGLSLEVATYRALLEGESNPEILIWTENIENVPQEPRNTSYRYTNSVLQRKNEKNLFPRREGHHHHHH	not soluble
MAPKRALPTEQVVAQLLGDDMGPSGPRKRERLNHLSQEEKMDRRKLKNRVAAQNARDKKKERSAKIEDVMRDLVEENRRLRAENERLRRQNKNLMNQQNESVMYMEENNENLMNSNDACIYQNVVYEEEVVGEVAPVVVVGGEDRRAFESAAFINEPQQWEQARSTSINNNISNQLRRMDSKKNNTISVDMYLTIISILCNHMDRNKKMDTSNKSSNISRAQAESSIDSLLATLRKEQTVMQRLVQADPCTHLQKRVKHFRRIP	soluble
MEQNIATAQVSVARPNWDKSRLVSRIVHLGCGAFHRAHQALFTHHLLEKSDSDWGICEVNLMPGNDARLIANLKAQNLLYTVAERGAESTELKIIGSMKEALHPEFDGHAGILAAMARPETAIVSLTVTEKGYCTDPASGELDVNNPLIQNDLAHPQQPKSAIGYIVEALNMRREQGLKAFTVLSCDNVRENGHVAKAAVLGLAKARDAALAAWIADNVTFPCTMVDRIVPAATEETLQLVADQLGVYDPCAIACEPFRQWVIEDNFVNGRPDWDTVGAQFVADVVPFEMMKLRMLNGSHSFLAYLGYLGGYDTIADTMTNPAYRRAALALMLDEQAPTLSMPEGTDLEGYANLLIARFTNPSLKHRTWQIAMDGSQKLPQRLLDPVRLHLQQGDDYRRLTLGVAGWMRYVGGVDEQGKTIDVVDPLLAQYQAIHQQYQTPEERVRGLLAIESIFGNDLPKNHEFVQAVTDAYQQLLQNGAKATVEALAK	not soluble
MTSDNKQEYTIHIFGQDITSQDGLFRLDEIRRVGIQIGKVEDNRSTEVARFMRTKAGRSLTNPENGFVKKINMGHLGTSWLADPVAAIEFGRWLDLGYGLAVTRAFVSMTSSATVQSAVASAEDIKPETKEFIQRHGTGLYIAGREVSQAEYSDYQAVTAGRCEWR	not soluble
MELMIGRVVKSHGIRGEVAIEVTTEEPEIRFAQGEVLNGRQGGKEHSLTIASVRPHQNRLLVKFKEIADRTAADSLRGTRFFAAPLDDDVDDGFYDHELEGLAVIHGEEKIGEVSGVIHGPAQSLLEVTLESGKEVLIPFVHDIVPEVDLDAGTCVITPPEGLLEL	not soluble
MGSDKIHHHHHHMDILRKVAEIHGTPTYVYFEETLRKRSRLVKEVFEGVNLLPTFAVKANNNPVLLKILREEGFGMDVVTKGELLAAKLAGVPSHTVVWNGNGKSRDQMEHFLREDVRIVNVDSFEEMEIWRELNPEGVEYFIRVNPEVDAKTHPHISTGLKKHKFGIPLEDLDSFMERFRSMNIRGLHVHIGSQITRVEPFVEAFSKVVRASERYGFEEINIGGGWGINYSGEELDLSSYREKVVPDLKRFKRVIVEIGRYIVAPSGYLLLRVVLVKRRHNKAFVVVDGGMNVLIRPALYSAYHRIFVLGKQGKEMRADVVGPLCESGDVIAYDRELPEVEPGDIIAVENAGAYGYTMSNNYNSTTRPAEVLVRENGRISLIRRRETEMDIFKDVVM	not soluble
MKKQKKARLIYNPTSGQEIMKKNVAEVLDILEGFGYETSAFQTTPTKNSARDEATRAAQAGFDLIVAAGGDGTINEVVNGIAPLKRRPKMAIIPTGTTNDFARALKIPRGNPIEATKLIGKNQIVKMDIGQAQEDNYFINIAAAGSLTELTYSVPSQLKTTFGYLAYLAKGVELLPRVRKVPVKITHDKGEFIGDASMIFVAITNSVGGFEQIAPDAKLDDGKFTLILVKTANLIEIMHLIRLVLAGGKHINDKRVEYIKTSYLTIEPLSDERMMINLDGEYGGDAPITLANLKNHIRFFANTDEISDDALVLDKDELAIEAIAQKFANEVDDLEGLGD	soluble
MFKKIATILGSTLFGTVLFAKVKEKRSYKSFLQEKMIRISGMKKTFESIDDAKKALNETKYQTAGKYNGTTYEFKHKVQIRDYYGSLVYVVNDHGLPDQRTVLYVHGGAWFQDPLENHFEYLDLLVDALDARVIMPVYPKIPHRDYRTTFELLTKIYKRLLTKIDEPENLVIIGDSAGGQIALAFAQMLKKEQLSQPGHIVLISPVLDATFKNPEARKYEKEDPMLGIDGSKYLVELWAGDAPLDDYKMSPMNGDLEGLGHITLTVGTKETLYPDAVKFSHMLNDKGIKHQFIPGYNLFHIYPLFPIPERQRFLEQLKKIIVTKEL	not soluble
MEIERINEHTVKFYISYVDIEERGFDREEIWYNRERSEELFWEMMDEVHGESDFSLDGPLWIQVQALEKGLEVVVTKAQLSKDGSKLELPLPEEKWREFSLSADEKVESLFGHHFHFGQNGDAEEREEQDVLRFILSFKDIEDVISLAHRADFSRLSNRLFQFEGRYYLFVEFDERYTEQEVDNMLSLLLEYGSDSQLTIYRLEEYGTEIMGDNALETIKTYFPAS	not soluble
NISYFSIGSGTPIIFLHGLSLDKQSTCLFFEPLSNVGQYQRIYLDLPGMGNSDPISPSTSDNVLETLIEAIEEIIGARRFILYGHSYGGYLAQAIAFHLKDQTLGVFLTCPVITADHSKRLTGKHINILEEDINPVENKEYFADFLSMNVIINNQAWHDYQNLIIPGLQKEDKTFIDQLQNNYSFTFEEKLKNINYQFPFKIMVGRNDQVVGYQEQLKLINHNENGEIVLLNRTGHNLMIDQREAVGFHFDLFLDE	not soluble
MSLGQGSILTKANTINNMEYVTEVFGAIPTEEQVSYQKEELTAFIHFGVNTFTGREWGDGTENPEIFNPTNLDADQWVKTLAEAGFGRVILTAKHHDGFCLWDSAYTKHDVASSPWKNGKGDVVKEVLEACAKYNIKFGVYLSPWDQNSEHYGDGNGGDYNEFYMNQLRELLTNYGPIAEVWMDGAKGSNVKQEYNFEEWFALIKKLQPECLIFSPQGPDIRWIGNEKGYAGEPCWSTIDIEKMKERENPTYLNNGEEGGPNWIVGESDVSIRPGWFYHESQDNEVKSLEKMMDIYFKSIGRNSVLLLNVPPNKEGKLHENDVNRLKKFGETIKELFNDDLALNKEVIVDGFANNDETYGANKIVDGDYDTYWAPDNSSKTGTIEIDLGGSKEFDVISLQEYIPLGQRVSSFNVEVLQGENWNKVYEGKTIGYKRLVRIAPTKGEKIRINITGSLEVPLINNVGVYKQPISIEEGHHHHHH	soluble
MAKKDEHLRKPEWLKIKLNTNENYTGLKKLMRENNLHTVCEEAKCPNIHECWAVRRTATFMILGSVCTRACRFCAVKTGLPTELDLQEPERVADSVALMNLKHAVITAVARDDQKDGGAGIFAETVRAIRRKSPFTTIEVLPSDMGGNYDNLKTLMDTRPDILNHNIETVRRLTPRVRARATYDRSLEFLRRAKEMQPDIPTKSSIMIGLGETKEEIIEVMDDLLANNVDIMAIGQYLQPTKKHLKVQKYYHPDEFAELKEIAMQKGFSHCEAGPLVRSSYHADEQVNEASKKR	not soluble
EVVVIGYGSVKKDDLSGSVVAIKAEEMNKGAVTSPQELIMGKVPGLSVSQGDGAPGAGSTIRIRGGASLNASNDPLIVIDGIPVSNDAAPGTPNALATINPNDIETFTVLKDASATAIYGSRASNGVIII	not soluble
MRTQNDLDRRLRSFGGRDGQMTTLSVRRLPVENGISGWEAISKRSKPVRRLEGDVTADWLIIGAGFAGLSAARRLTQLHPGETIVVLDASEVGKGTSGRNSGFMIDVPHNLASSEYSSGAIDATRLEMEQNRSAIAFAAAAAEDYGMSRQTFDPAGKINAAATRRGMTLNQNFAASLKNAGEKHTLLDAAQMRALTGSDYYLGGLYTPGAVLIQPADYIREFAAGLSPKVDIFENSPVTALRRENRAWKATTPSGSVTAPKVILGVNGHVDDFGHFRGRLIHIFAYASMTAPFAARDYGSRVSGQDKWALLPADAMGATVRKITSDGQSRIAIRTRYTYETTLDLTKHQLSKMVRAHRRSLDDRFPGLGGIPFEYSWSGRICLSLNHVPAFGEIEEGLFSACCENGLGTVKSTLAGMMAAELATGTTSRHLEQYMDHPAPSRLPPEPFAWLGINSVIRLQELRAGREGLEHHHHHH	not soluble
MNFPVSDLTSYQELIEQQGLKSQTNIISLDKIIVDIILSEKTGFSRSQQVWCLIRQRIVDGCASVVDIDYLDMRLMPQLNRSIAENSIYDYLENQLHLSISHAFKEITIDNTSEQDKILIDIGKDHHVVCIRSKVYLNNGNQLQFTESRHKLEKFKFVYYAKRHH	not soluble
MGSDKIHHHHHHMRGSSNIPLDWDKLRIFHAAAEAGSFTHAADKLHLSQSAISRQVSALEQDVGVKLFHRHARGLILTEQGELLYRTAHDVLLKLETVKMQLTETTEKPSGKLRVTTTVGLGQGWLTDKVQEFLQLYPDMSIQLILDNEELDVNMRHADCAIRLRQPQQSDLIQRKLFTVHMHVYAAPSYINRYGEPQTIEDLDNHRIISFGEPAPNYLLDVNWLEVAGRSSDNRRIPHLQINSQTSIKRACLLGIGVACMPDYIVGRDPGLIQLPINAEVPSFDTYFCYPDEMKNAAKLKVFRDFIVSKARNWNF	not soluble
SLSGRIVYNFNPGWRFHRGDIKGAEAVRFDDTSWQVVSVPHTVELMPAEASGCRNYQGVAWYRKHFVIPQDMKGKEVSLHFEGAMGKQVIYLNGKRVQEHLGGYLPFTVQLTEQGVQPGDSCLLAVMTDNSDDKNFPPGKRQYTLDFAYHGGIYRDVWMIGKSSVAITDALEADKVAGGGVFVHFDNISGKKAEVYVDTEVHNSGKQTRTVAVETVLADAGDVPVKRVSQQVKLQAGESKTVRQRFAVRNPKLWSPDSPYLYRIQSRVKAGHEVLDGGVTRVGIRKAEFKGKDGFWLNGKPFGQLVGANRHQDFAYVGNALPNSQQWRDAKRLRDAGCTIIRVAHYPQDPAFMDACDEMGLFVIVATPGWQYWNKNPEFAKLVHRNTREMIRRDRNHPSVLMWEPILNETPYPRDFALEALRITREEFPYPGRPVAAADVHSKGVAENYDVVYGWPGDDEKADRPEQCIFTREFGENVDDWYAHNNNNRASRSWGERPLLVQALSLSKSYDEMYRTTGQFVGGAQWHPFDHQRGYHPDPYFGGIYDAFRQPKYAYYAFRSQSAATLKHPVAECGPMVFIAHEMSPFSDADVVVFSNCDSVRLSVYDGTESRTLPVVHAQGHMPNAPVIFKDVWDFWEAREYSYKQKNWQKVNMVAEGIIDGKVVCTYKRMPSRRSTKLRMYVDTEGKQLVADGSDFIVVVAEVTDDSGNVRRLAKENIVFTVEGEGRIIGDASINANPRTVEFGSAPVLIRSTRKPGKIKVKAHVQFEGTNAPVATEIELESIPSELPFCYTEEG	not soluble
